# Results: PMC9464622 (2022)
# T1: LL-37 (Homo sapiens, UniProt P49913)
# T1 chain: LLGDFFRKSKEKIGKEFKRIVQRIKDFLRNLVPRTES
# B1: rfhSP-A trimeric recombinant fragment (protein)
# chain: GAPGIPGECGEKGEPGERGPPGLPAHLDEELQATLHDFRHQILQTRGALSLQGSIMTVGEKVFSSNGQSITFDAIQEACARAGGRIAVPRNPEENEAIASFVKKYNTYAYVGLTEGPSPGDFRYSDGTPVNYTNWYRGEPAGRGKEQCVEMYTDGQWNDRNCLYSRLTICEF
# Molecular target: T1, LL-37
# Test: tryptophan fluorescence
binder,measurement,value
B1,Kd,1.22 nM
